PMC5352143, “Lactoferrin binding protein B – a bi-functional bacterial receptor protein” (PLoS Pathogens, 2017)

Molecular target: T1, holo human lactoferrin (iron-loaded hLf) (human)
T1 construct: human lactoferrin, iron-loaded (holo) form; Iron-loaded form; also called holo-hLf; holo-Lf; source: bought: Agennix (named for XL-MS)
Assay: BLI; Octet RED 96; biotinylated MBP-LbpB constructs loaded from crude E. coli extracts on streptavidin sensors; holo-hLf 10-800 nM in 1 X PBS pH 7.4, 0.002% Tween-20, 0.1 mg/mL BSA; steady-state fit, apparent KD
Settings: one partner purified

B1: LbpB C-terminal lobe with N-terminal biotin acceptor peptide, fused to MBP (BLI construct) (domain or fragment)
chain: ENAADTKPALSSGKHTKILDSLKISVDEASDKNPREFAISSMPDFGHPDKLLVEGREIPLVNKEQTIELADGRKTTIRTCCDFLTYVKIGRMQTERPAAKPKAQDEERDEEDTGVDSVEEGEDEIDDEEGTEDAAVKDEGSEEDEAVEGEDEAEEPEEESPTEEGGSGSDGILPAPEAPKGRNIDLFLKGIRTAETDIPKTGEAHYTGTWEARIGKPIQWDNQADKEAAKAVFTVDFGKKSISGTLTEENGVEPAFHIENGKIEGNGFYATARTRENGINLSGNGSTDPKTFQASNLRVEGGFYGPQAEELGGIIFNNDGKSLGITEGTENKVDVEAEVDAEVDVGKQLESEVKHQFGVVFGAKKDMQEVEK
modifications: biotin on the biotin acceptor peptide
- Kd: 279 ± 15 nM
